Patent US20180155451A1 (published 2018)

B1: J142-z73/L180-k (antibody, human IgG4 S228P, kappa)
heavy: QVQLVQSGSELKKPGASVKVSCKASGYTFTDNNMDWVRQAPGQGLEWMGDINTRSGGSIYNEEFQDRVTMTIDKSTGTAYMELSSLRSEDTAVYYCARRRSYGYYHDEWGEGTLVTVSSASTKGPSVFPLAPCSRSTSESTAALGCLVKDYFPEPVTVSWNSGALTSGVHTFPAVLQSSGLYSLSSVVTVPSSSLGTKTYTCNVDHKPSNTKVDKRVESKYGPPCPPCPAPEFLGGPSVFLFPPKPKDTLMISRTPEVTCVVVDVSQEDPEVQFNWYVDGVEVHNAKTKPREEQFNSTYRVVSVLTVLHQDWLNGKEYKCKVSNKGLPSSIEKTISKAKGQPREPQVYTLPPSQEEMTKNQVSLTCLVKGFYPSDIAVEWESNGQPENNYKTTPPVLDSDGSFFLYSRLTVDKSRWQEGNVFSCSVMHEALHNRFTQESLSLSP
light: DIQMTQSPSSLSASVGDRVTITCKASRNIERNLAWYQQKPGQAPELLIYSASRKESGVPDRFSGSRYGTDFTLTISSLQPEDLATYYCQQYYSPPLTFGGGTKVEIKRTVAAPSVFIFPPSDEQLKSGTASVVCLLNNFYPREAKVQWKVDNALQSGNSQESVTEQDSKDSTYSLSSTLTLSKADYEKHKVYACEVTHQGLSSPVTKSFNRGEC
notes: also called homomeric antibody against FX
B2: J300-z107/L210-k (antibody, human IgG4 S228P, kappa)
heavy: QVQLVQSGSELKKPGASVKVSCKASGYTFTDNNMDWVRQAPGQGLEWMGDINTRSGGSIYNEEFQDRVIMTVDKSTDTAYMELSSLRSEDTAVYHCARRKSYGYYLDEWGEGTLVTVSSASTKGPSVFPLAPCSRSTSESTAALGCLVKDYFPEPVTVSWNSGALTSGVHTFPAVLQSSGLYSLSSVVTVPSSSLGTQTYTCNVDHKPSNTKVDKRVESKYGPPCPPCPAPEFLGGPSVFLFPPKPKDTLMISRTPEVTCVVVDVSQEDPEVQFNWYVDGVEVHNAKTKPREEQYNSTYRVVSVLTVLHQDWLNGKEYKCKVSNKGLPSSIEKTISKAKGQPREPQVYTLPPSQEEMTKNQVSLTCLVKGFYPSDIAVEWESNGQPENNYKTTPPVLDSDGSFFLYSKLTVDKSRWQEGNVFSCSVMHEALHNRYTQESLSLSP
light: DIQMTQSPSSLSASVGDRVTITCKASRNIERNLAWYQQKPGQAPELLIYSASRKESGVPDRFSGSRYGTDFTLTISSLQPEDIATYYCQQYSSPPLTFGGGTKVEIKRTVAAPSVFIFPPSDEQLKSGTASVVCLLNNFYPREAKVQWKVDNALQSGNSQESVTEQDSKDSTYSLSSTLTLSKADYEKHKVYACEVTHQGLSSPVTKSFNRGEC
notes: Homomeric by-product in the culture medium of cells that express Q407-z106/J300-z107/L210-k; The H chain gene was made by linking z107 downstream of J300; also called homomeric antibody against FX

Legend:
[1] = target: T1, Protein A (rProtein A Sepharose Fast Flow) (UniProt P38507 37-327); assay: Protein A affinity chromatography (rProtein A Sepharose Fast Flow); the species is 3.2% of the Protein G-purified control but is not found in the pH 3.6 or the pH 2.7 elution fraction (cation exchange analysis)
T1 construct: Bought chromatography resin
Method: (§1) CM filtered through ϕ0.22-μm filter was loaded onto rProtein A Sepharose Fast Flow column (GE Healthcare) equilibrated with D-PBS. Washes 1 and 2 and Elutions 1 and 2 shown in Table 76 were carried out (Elution 1 alone was performed for Q407-z106/J300-z107/L210-k). […] The quantity of CM to be loaded was adjusted in a way that the quantity of the loaded antibody is 20 mg/ml resine. Fractions eluted under each condition were collected and the components contained in each elution fraction were identified by cation exchange chromatography analysis. […] Samples purified by batchwise elution were used as controls.
(§2) The values represent the area of elution peak expressed in percentage.

[2] = target: T1, Protein A (rProtein A Sepharose Fast …); assay: Protein A affinity chromatography (rProtein A Sepharose Fast Flow); the species is 5.8% of the Protein G-purified control but is not found in the pH 3.6 elution fraction (cation exchange analysis)
Method: as §1, §2

| Binder | binding result [1] | binding result [2] |
| --- | --- | --- |
| B1 | no binding |  |
| B2 |  | no binding |
